From patent US20090062514A1
Values joined by “and” are separate entries in the source; they are usually repeats but may differ in a detail not shown here. Identical values can stand only once.

Target: human IgG (Sigma 14506) (human)
Test: co-precipitation of human IgG with viral particles by centrifugation; SDS-PAGE of pellets and supernatants

Substance: recombinant viral particles displaying protein A on their surface (TVCV coat protein-protein A fusion, domains E and D of protein A)
- binding capacity (mg IgG/mg of viral particles): 2
- CP-protein A fusion molecules per bound IgG molecule (scale: CP-protein A fusion molecules per IgG molecule): 3 and 5
